Measurements: the supplement of paper PMC9112550, “Optimization of the antimicrobial peptide Bac7 by deep mutational scanning” (BMC Biology, 2022)

What follows are sequences tested on Escherichia coli TOP10 (assay: shrunken log2 fold change of peptide-encoding DNA abundance (4.5 h post-induction vs induction); higher = less antimicrobial activity (less host growth inhibition)). Details: time post-induction: 4.5 h; library: site-saturation at positions 5, 18, 19, 20.
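Note: peptides expressed intracellularly from a pBAD plasmid library in pooled LB shake-flask culture, induced with 0.3% L-arabinose, DNA abundance read by NGS, three biological replicates, DESeq2 with apeglm shrinkage.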

First: RRIRVRPPRLPRPRPRPAHYPRP
Second: RRIRPRPPRLPRPRPRPPHSPRP
The “shrunken log2 fold change” value of the first is lower: -0.113 for the first, 1.31 for the second.

First: RRIRERPPRLPRPRPRPPEKPRP
Second: RRIRFRPPRLPRPRPRPIYNPRP
The “shrunken log2 fold change” value of the first is higher: -0.0038 for the first, -0.624 for the second.

RRIRHRPPRLPRPRPRPEAVPRP and RRIRDRPPRLPRPRPRPGRVPRP are within 0.2 log units of each other in “shrunken log2 fold change” value: -0.00144 for the first, 0.166 for the second.

First: RRIRNRPPRLPRPRPRPKKHPRP
Second: RRIRMRPPRLPRPRPRPTHRPRP
The “shrunken log2 fold change” value of the first is lower: -0.315 for the first, 0.929 for the second.

RRIRKRPPRLPRPRPRPSGLPRP and RRIRFRPPRLPRPRPRPWNRPRP are within 0.2 log units of each other in “shrunken log2 fold change” value: -0.0301 for the first, -0.216 for the second.

Going from RRIRQRPPRLPRPRPRPVVCPRP to RRIRDRPPRLPRPRPRPLQRPRP, the “shrunken log2 fold change” value falls from 3.57 to -0.00347.

RRIRHRPPRLPRPRPRPIWKPRP and RRIRPRPPRLPRPRPRPIATPRP are within 0.2 log units of each other in “shrunken log2 fold change” value: -0.0276 for the first, -0.159 for the second.

Compared with RRIRFRPPRLPRPRPRPSISPRP, RRIRIRPPRLPRPRPRPDVGPRP is higher in “shrunken log2 fold change” value: -1.18 for the first, -0.284 for the second.

RRIRPRPPRLPRPRPRPIEMPRP and RRIRHRPPRLPRPRPRPRQTPRP are within 0.2 log units of each other in “shrunken log2 fold change” value: 0.00861 for the first, 0.0257 for the second.

First: RRIRTRPPRLPRPRPRPEVRPRP
Second: RRIRKRPPRLPRPRPRPQPAPRP
The “shrunken log2 fold change” value of the first is lower: 0.0828 for the first, 0.783 for the second.

RRIRHRPPRLPRPRPRPCKYPRP and RRIRDRPPRLPRPRPRPCACPRP are within 0.2 log units of each other in “shrunken log2 fold change” value: 0.0259 for the first, 0.112 for the second.

RRIRMRPPRLPRPRPRPDGRPRP and RRIRARPPRLPRPRPRPYPLPRP are within 0.2 log units of each other in “shrunken log2 fold change” value: -0.00101 for the first, -0.127 for the second.

RRIRFRPPRLPRPRPRPACVPRP and RRIRNRPPRLPRPRPRPNWSPRP are within 0.2 log units of each other in “shrunken log2 fold change” value: -0.0826 for the first, -0.106 for the second.

Going from RRIRRRPPRLPRPRPRPCFSPRP to RRIRMRPPRLPRPRPRPVGTPRP, the “shrunken log2 fold change” value rises from -0.14 to 0.477.

Compared with RRIRMRPPRLPRPRPRPNGTPRP, RRIRYRPPRLPRPRPRPGWIPRP is lower in “shrunken log2 fold change” value: 0.0915 for the first, -0.328 for the second.

RRIRRRPPRLPRPRPRPKCIPRP and RRIRKRPPRLPRPRPRPSYDPRP are within 0.2 log units of each other in “shrunken log2 fold change” value: -0.019 for the first, 0.0212 for the second.

RRIRERPPRLPRPRPRPMRSPRP and RRIRHRPPRLPRPRPRPHIGPRP are within 0.2 log units of each other in “shrunken log2 fold change” value: 0.119 for the first, -0.0123 for the second.

Compared with RRIRSRPPRLPRPRPRPEDGPRP, RRIRPRPPRLPRPRPRPTRMPRP is higher in “shrunken log2 fold change” value: 0.0117 for the first, 0.479 for the second.

Going from RRIRERPPRLPRPRPRPQWHPRP to RRIRFRPPRLPRPRPRPGGLPRP, the “shrunken log2 fold change” value rises from -0.479 to 0.217.

RRIRSRPPRLPRPRPRPCRLPRP and RRIRPRPPRLPRPRPRPYPTPRP are within 0.2 log units of each other in “shrunken log2 fold change” value: -0.271 for the first, -0.11 for the second.

RRIRLRPPRLPRPRPRPEHKPRP and RRIRSRPPRLPRPRPRPVYDPRP are within 0.2 log units of each other in “shrunken log2 fold change” value: -0.0822 for the first, -0.227 for the second.

Compared with RRIRTRPPRLPRPRPRPLIRPRP, RRIRPRPPRLPRPRPRPLDAPRP is higher in “shrunken log2 fold change” value: -0.133 for the first, 0.131 for the second.

First: RRIRMRPPRLPRPRPRPTRPPRP
Second: RRIRVRPPRLPRPRPRPKHHPRP
The “shrunken log2 fold change” value of the first is higher: 1.32 for the first, -0.357 for the second.

RRIRHRPPRLPRPRPRPMNKPRP and RRIRIRPPRLPRPRPRPRINPRP are within 0.2 log units of each other in “shrunken log2 fold change” value: -0.329 for the first, -0.482 for the second.

Compared with RRIRMRPPRLPRPRPRPHCRPRP, RRIRPRPPRLPRPRPRPPDAPRP is higher in “shrunken log2 fold change” value: 0.274 for the first, 0.553 for the second.

First: RRIRWRPPRLPRPRPRPKGPPRP
Second: RRIRTRPPRLPRPRPRPAPPPRP
The “shrunken log2 fold change” value of the first is higher: 3.65 for the first, 0.525 for the second.

RRIRRRPPRLPRPRPRPPTEPRP and RRIRSRPPRLPRPRPRPLWWPRP are within 0.2 log units of each other in “shrunken log2 fold change” value: 0.315 for the first, 0.35 for the second.

RRIRWRPPRLPRPRPRPWYLPRP and RRIRTRPPRLPRPRPRPFPWPRP are within 0.2 log units of each other in “shrunken log2 fold change” value: -0.193 for the first, -0.125 for the second.

Compared with RRIRYRPPRLPRPRPRPAFWPRP, RRIRPRPPRLPRPRPRPYRYPRP is lower in “shrunken log2 fold change” value: 0.444 for the first, 0.101 for the second.

RRIRTRPPRLPRPRPRPVSCPRP and RRIRPRPPRLPRPRPRPQVRPRP are within 0.2 log units of each other in “shrunken log2 fold change” value: -0.206 for the first, -0.13 for the second.

Going from RRIRKRPPRLPRPRPRPFGGPRP to RRIRCRPPRLPRPRPRPHNTPRP, the “shrunken log2 fold change” value falls from -0.043 to -0.246.

Compared with RRIRPRPPRLPRPRPRPCMNPRP, RRIRWRPPRLPRPRPRPTYEPRP is higher in “shrunken log2 fold change” value: -0.184 for the first, 0.207 for the second.

Compared with RRIRRRPPRLPRPRPRPSYWPRP, RRIRERPPRLPRPRPRPEGEPRP is higher in “shrunken log2 fold change” value: -0.0367 for the first, 0.332 for the second.

RRIRMRPPRLPRPRPRPFYSPRP and RRIRQRPPRLPRPRPRPAMDPRP are within 0.2 log units of each other in “shrunken log2 fold change” value: -0.0137 for the first, -0.00901 for the second.

Going from RRIRFRPPRLPRPRPRPSWSPRP to RRIRWRPPRLPRPRPRPCDSPRP, the “shrunken log2 fold change” value rises from -0.557 to -0.00192.

Going from RRIRGRPPRLPRPRPRPEPIPRP to RRIRERPPRLPRPRPRPRSKPRP, the “shrunken log2 fold change” value falls from 0.296 to 0.00172.

Going from RRIRERPPRLPRPRPRPSSIPRP to RRIRYRPPRLPRPRPRPSLEPRP, the “shrunken log2 fold change” value rises from -0.855 to -0.0996.

First: RRIRCRPPRLPRPRPRPIMLPRP
Second: RRIRIRPPRLPRPRPRPYKQPRP
The “shrunken log2 fold change” value of the first is lower: -0.587 for the first, -0.101 for the second.

First: RRIRYRPPRLPRPRPRPTGPPRP
Second: RRIRPRPPRLPRPRPRPASDPRP
The “shrunken log2 fold change” value of the first is lower: 0.0492 for the first, 0.261 for the second.

First: RRIRTRPPRLPRPRPRPMQPPRP
Second: RRIRHRPPRLPRPRPRPRIDPRP
The “shrunken log2 fold change” value of the first is higher: 0.0715 for the first, -0.511 for the second.

RRIRMRPPRLPRPRPRPNFCPRP and RRIRWRPPRLPRPRPRPQHCPRP are within 0.2 log units of each other in “shrunken log2 fold change” value: 0.0533 for the first, -0.115 for the second.

Going from RRIRPRPPRLPRPRPRPPNDPRP to RRIRKRPPRLPRPRPRPCWYPRP, the “shrunken log2 fold change” value falls from 0.111 to -0.139.

Compared with RRIRNRPPRLPRPRPRPQARPRP, RRIRYRPPRLPRPRPRPRILPRP is lower in “shrunken log2 fold change” value: -0.0332 for the first, -0.276 for the second.

First: RRIRWRPPRLPRPRPRPEKYPRP
Second: RRIRLRPPRLPRPRPRPMVAPRP
The “shrunken log2 fold change” value of the first is lower: -0.357 for the first, -0.147 for the second.

Going from RRIRARPPRLPRPRPRPNVHPRP to RRIRPRPPRLPRPRPRPQKIPRP, the “shrunken log2 fold change” value falls from 0.0927 to -0.267.

Going from RRIRPRPPRLPRPRPRPNNPPRP to RRIRNRPPRLPRPRPRPYTVPRP, the “shrunken log2 fold change” value rises from -0.415 to 0.0303.

RRIRNRPPRLPRPRPRPWTPPRP and RRIRHRPPRLPRPRPRPWWPPRP are within 0.2 log units of each other in “shrunken log2 fold change” value: -0.0926 for the first, -0.0995 for the second.

Compared with RRIRCRPPRLPRPRPRPRMMPRP, RRIRLRPPRLPRPRPRPHCWPRP is higher in “shrunken log2 fold change” value: -0.11 for the first, 0.109 for the second.

RRIRARPPRLPRPRPRPPCHPRP and RRIRNRPPRLPRPRPRPGYEPRP are within 0.2 log units of each other in “shrunken log2 fold change” value: 0.219 for the first, 0.0608 for the second.

Compared with RRIRLRPPRLPRPRPRPLAWPRP, RRIRWRPPRLPRPRPRPDGGPRP is lower in “shrunken log2 fold change” value: 0.32 for the first, -0.0355 for the second.

RRIRKRPPRLPRPRPRPDEIPRP and RRIRIRPPRLPRPRPRPSGQPRP are within 0.2 log units of each other in “shrunken log2 fold change” value: 0.0203 for the first, -0.0453 for the second.

Compared with RRIRIRPPRLPRPRPRPKHMPRP, RRIRWRPPRLPRPRPRPHMGPRP is higher in “shrunken log2 fold change” value: -0.451 for the first, 0.0771 for the second.

RRIRPRPPRLPRPRPRPFGDPRP and RRIRTRPPRLPRPRPRPHSFPRP are within 0.2 log units of each other in “shrunken log2 fold change” value: -0.0184 for the first, -0.0168 for the second.

RRIRVRPPRLPRPRPRPIWTPRP and RRIRARPPRLPRPRPRPNSGPRP are within 0.2 log units of each other in “shrunken log2 fold change” value: -0.0382 for the first, -0.0211 for the second.

In the case of RRIRTRPPRLPRPRPRPKLRPRP, the “shrunken log2 fold change” value is reported as -0.0516.
